We go through five molecules from publication PMC3870252, “The N-Terminal Membrane-Spanning Domain of the Escherichia coli DNA Translocase FtsK Hexamerizes at Midcell” (mBio, 2013).

Values joined by “and” are separate entries in the source; they are usually repeats but may differ in a detail not shown here. Equal values may be shown once.

What is called stoichiometry N is the number of molecules, sites or subunits per partner or assembly.

The target of series [1] is EcFtsKN (purified N-terminal domain of FtsK from E. coli) (E. coli). Nature of the series: oligomer bands on SDS-PAGE of SEC fractions; fractions of the Superdex S-200 second purification step at a lower DDM detergent concentration, 12% Coomassie blue-stained SDS-PAGE.
In series [2] the target is TtFtsKN (purified N-terminal domain of FtsK from Thermoanaerobacter tengcongensis) (Thermoanaerobacter tengcongensis). Described as above.
The target is the same in series [3]. The experiment in a line: SEC-MALS; Superdex S-200 column, in DDM detergent; masses after subtraction of the micelle contribution; hexamer and monomer peaks. A general note: In gel filtration, larger molecules generally elute earlier.
Series [4] concerns the molecule itself. The experiment in a line: quantitative live-cell fluorescence stoichiometry (widefield microscopy); live E. coli in minimal glycerol medium; integrated midcell fluorescence divided by the intensity of a single YPet fluorophore; periodicity from the power spectrum of measured stoichiometries.

Take “EcFtsKN (purified N-terminal domain of FtsK from E. coli) (domain or fragment)”: the stoichiometry N in series [1] is 2 and 6. As to “TtFtsKN (purified N-terminal domain of FtsK from Thermoanaerobacter tengcongensis) (domain or fragment)”, the stoichiometry N in series [2] was 2 and 6; in series [3] it was 6.

B1: FtsK-YPet (wild-type E. coli FtsK with a C-terminal YPet fusion) (natural protein, UniProt P46889 1-1329, looked up)
chain: MSQEYIEDKEVTLTKLSSGRRLLEALLILIVLFAVWLMAALLSFNPSDPSWSQTAWHEPIHNLGGMPGAWLADTLFFIFGVMAYTIPVIIVGGCWFAWRHQSSDEYIDYFAVSLRIIGVLALILTSCGLAAINADDIWYFASGGVIGSLLSTTLQPLLHSSGGTIALLCVWAAGLTLFTGWSWVTIAEKLGGWILNILTFASNRTRRDDTWVDEDEYEDDEEYEDENHGKQHESRRARILRGALARRKRLAEKFINPMGRQTDAALFSGKRMDDDEEITYTARGVAADPDDVLFSGNRATQPEYDEYDPLLNGAPITEPVAVAAAATTATQSWAAPVEPVTQTPPVASVDVPPAQPTVAWQPVPGPQTGEPVIAPAPEGYPQQSQYAQPAVQYNEPLQQPVQPQQPYYAPAAEQPAQQPYYAPAPEQPVAGNAWQAEEQQSTFAPQSTYQTEQTYQQPAAQEPLYQQPQPVEQQPVVEPEPVVEETKPARPPLYYFEEVEEKRAREREQLAAWYQPIPEPVKEPEPIKSSLKAPSVAAVPPVEAAAAVSPLASGVKKATLATGAAATVAAPVFSLANSGGPRPQVKEGIGPQLPRPKRIRVPTRRELASYGIKLPSQRAAEEKAREAQRNQYDSGDQYNDDEIDAMQQDELARQFAQTQQQRYGEQYQHDVPVNAEDADAAAEAELARQFAQTQQQRYSGEQPAGANPFSLDDFEFSPMKALLDDGPHEPLFTPIVEPVQQPQQPVAPQQQYQQPQQPVPPQPQYQQPQQPVAPQPQYQQPQQPVAPQQQYQQPQQPVAPQQQYQQPQQPVAPQPQDTLLHPLLMRNGDSRPLHKPTTPLPSLDLLTPPPSEVEPVDTFALEQMARLVEARLADFRIKADVVNYSPGPVITRFELNLAPGVKAARISNLSRDLARSLSTVAVRVVEVIPGKPYVGLELPNKKRQTVYLREVLDNAKFRDNPSPLTVVLGKDIAGEPVVADLAKMPHLLVAGTTGSGKSVGVNAMILSMLYKAQPEDVRFIMIDPKMLELSVYEGIPHLLTEVVTDMKDAANALRWCVNEMERRYKLMSALGVRNLAGYNEKIAEADRMMRPIPDPYWKPGDSMDAQHPVLKKEPYIVVLVDEFADLMMTVGKKVEELIARLAQKARAAGIHLVLATQRPSVDVITGLIKANIPTRIAFTVSSKIDSRTILDQAGAESLLGMGDMLYSGPNSTLPVRVHGAFVRDQEVHAVVQDWKARGRPQYVDGITSDSESEGGAGGFDGAEELDPLFDQAVQFVTEKRKASISGVQRQFRIGYNRAARIIEQMEAQGIVSEQGHNGNREVLAPPPFD
notes: FtsK, DNA translocase, Escherichia coli; wild-type protein, 1,329 amino acids, integral membrane protein; also called wild-type FtsK; source: expressed from the endogenous wild-type chromosomal locus, E. coli K-12 AB1157 derivative, in live cells; not shown: YPet, C-terminal, kept
With B1, in series [4], the “stoichiometry N” value amounted to 6.12.

B2: FtsKN-YPet (N-terminal domain of E. coli FtsK, amino acids 1 to 210) (domain or fragment, UniProt P46889 1-210, looked up)
chain: MSQEYIEDKEVTLTKLSSGRRLLEALLILIVLFAVWLMAALLSFNPSDPSWSQTAWHEPIHNLGGMPGAWLADTLFFIFGVMAYTIPVIIVGGCWFAWRHQSSDEYIDYFAVSLRIIGVLALILTSCGLAAINADDIWYFASGGVIGSLLSTTLQPLLHSSGGTIALLCVWAAGLTLFTGWSWVTIAEKLGGWILNILTFASNRTRRDDT
notes: FtsK, Escherichia coli, N-terminal membrane-spanning domain, amino acids 1 to 210; source: expressed from the endogenous chromosomal locus, E. coli K-12 AB1157 derivative, in live cells; not shown: YPet, C-terminal, kept
Turning to B2, the “stoichiometry N” value in series [4] came out at 6.

B3: FtsKΔC-YPet (FtsK derivative lacking the C-terminal domain, amino acids 1 to 818) (domain or fragment, E. coli, UniProt P46889 1-818, looked up)
chain: MSQEYIEDKEVTLTKLSSGRRLLEALLILIVLFAVWLMAALLSFNPSDPSWSQTAWHEPIHNLGGMPGAWLADTLFFIFGVMAYTIPVIIVGGCWFAWRHQSSDEYIDYFAVSLRIIGVLALILTSCGLAAINADDIWYFASGGVIGSLLSTTLQPLLHSSGGTIALLCVWAAGLTLFTGWSWVTIAEKLGGWILNILTFASNRTRRDDTWVDEDEYEDDEEYEDENHGKQHESRRARILRGALARRKRLAEKFINPMGRQTDAALFSGKRMDDDEEITYTARGVAADPDDVLFSGNRATQPEYDEYDPLLNGAPITEPVAVAAAATTATQSWAAPVEPVTQTPPVASVDVPPAQPTVAWQPVPGPQTGEPVIAPAPEGYPQQSQYAQPAVQYNEPLQQPVQPQQPYYAPAAEQPAQQPYYAPAPEQPVAGNAWQAEEQQSTFAPQSTYQTEQTYQQPAAQEPLYQQPQPVEQQPVVEPEPVVEETKPARPPLYYFEEVEEKRAREREQLAAWYQPIPEPVKEPEPIKSSLKAPSVAAVPPVEAAAAVSPLASGVKKATLATGAAATVAAPVFSLANSGGPRPQVKEGIGPQLPRPKRIRVPTRRELASYGIKLPSQRAAEEKAREAQRNQYDSGDQYNDDEIDAMQQDELARQFAQTQQQRYGEQYQHDVPVNAEDADAAAEAELARQFAQTQQQRYSGEQPAGANPFSLDDFEFSPMKALLDDGPHEPLFTPIVEPVQQPQQPVAPQQQYQQPQQPVPPQPQYQQPQQPVAPQPQYQQPQQPVAPQQQYQQPQQPVAPQQQYQQPQQPVAPQPQDT
notes: FtsK, Escherichia coli, amino acids 1 to 818 (lacks the C-terminal translocase domain); source: expressed from the endogenous chromosomal locus, E. coli K-12 AB1157 derivative, in live cells; not shown: YPet, C-terminal, kept
Consider B3, for which the “stoichiometry N” value in series [4] was found to be 6.05.
